Results from article PMC3210814.

How the values were obtained:
[1] = molecular target: bovine pancreatic trypsin (bovine); assay: enzyme inhibition assay (chromogenic substrate), inhibition against inhibitor concentration; trypsin 400 nM incubated with 0 to 400 nM rSdPI for 30 min; 100 mM Tris-HCl pH 8.0, 10 mM CaCl2, 25°C
[2] = molecular target: bovine pancreatic trypsin (bovine); assay: enzyme inhibition assay (chromogenic substrate), Lineweaver-Burk plots and replot of the slopes; trypsin 400 nM pre-incubated with the inhibitor for 30 min; 100 mM Tris-HCl pH 8.0, 10 mM CaCl2, 25°C; substrate Nα-benzoyl-L-arginine 4-nitroanilide 0.1 to 0.8 mM; p-nitroaniline read at 405 nm for 5 min

Chain of bovine pancreatic trypsin (bovine) (P00760 24-246): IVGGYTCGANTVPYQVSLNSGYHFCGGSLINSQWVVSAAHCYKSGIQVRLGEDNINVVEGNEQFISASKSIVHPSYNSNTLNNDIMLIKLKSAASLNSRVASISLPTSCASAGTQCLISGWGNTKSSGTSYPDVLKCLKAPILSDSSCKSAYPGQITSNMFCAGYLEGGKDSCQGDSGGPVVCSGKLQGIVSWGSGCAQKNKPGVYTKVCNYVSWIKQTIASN

Binder	stoichiometry N [1]	Ki [2]
recombinant SdPI peptide (scorpion-derived protease inhibitor), wild type (peptide) KNKCQLPSDVGKGKASFTRYYYNEEGGKCETFIYGGVGGNSNNFLTKEDCCRECAQGSC	1	0.16 µM
SdPI G13F mutant (peptide) KNKCQLPSDVGKFKASFTRYYYNEEGGKCETFIYGGVGGNSNNFLTKEDCCRECAQGSC	–	0.26 µM
SdPI K12A mutant (peptide) KNKCQLPSDVGAGKASFTRYYYNEEGGKCETFIYGGVGGNSNNFLTKEDCCRECAQGSC	–	0.29 µM
SdPI Ala15Phe mutant (peptide) KNKCQLPSDVGKGKFSFTRYYYNEEGGKCETFIYGGVGGNSNNFLTKEDCCRECAQGSC	–	62 µM
